In US9395368B2, “Methods, agents and peptides for inducing an immune response to matrix metalloproteinase-2 expressing tumors” (New York University, priority 2010, dated 2016):

Tests used:
OX40L expression on DCs = OX40L expression on DCs by surface staining; format: cell-based, human; settings: immature and poly(I:C)-matured DCs, n=9, 24 h
Experimental: Immature and poly(I:C)-matured DCs were incubated with active or HI MMP-2 (0.5 μg/mL or 5 μg/mL) for 24 h. MMP-2 enzymatic activity was controlled (FIG. 13C-D). OX40L expression was assessed by surface staining (A) Histogram plots are shown for representative donor HD1228. Isotype control is represented in tinted gray. (B) Mean fluorescent intensities are represented for all 9 donors tested. […] P values≦0.0167 (*) were considered statistically significant using a Bonferroni correction for 3 comparisons for each DC type. See also FIG. 12.
Dendritic cell preparation and activation. PBMCs were purified from healthy—(HD) or cord blood—(CB) donors and plated at 40×10^6 cells/10 mL/dish in complete IMDM with 5% PHS. Cells were allowed to adhere for 2 h at 37° C. Non-adherent cells were removed. The monocyte-enriched fraction was supplemented with 100 UI/mL rhGMCSF and 300 UI/mL rhIL-4 (R&D Systems) on days 0, 2 and 4. Immature DCs were harvested on day 5 and matured using poly(I:C) at 5 μg/mL/10^6 DCs (Amersham) Secretion of IL-12p70, TNFα, IL-1β, IL-6, IL-8 and IL-10 was assessed on both immature and mature DCs using the Human Inflammatory Cytokine Cytometric Bead Array (BD Pharmingen).

[1] = system: IL-12p70 production by DCs; test: IL-12p70 production by poly(I:C)-matured DCs (CBA); format: cell-based, human
Experimental: (§1) Immature DCs were incubated with MMP-2 (0.5 μg/mL or 5 μg/mL) and poly(I:C)-matured 1 h later. IL-12 levels were measured 16 h later. (A) Results are represented as a percentage of IL-12p70 levels, measured by CBA, produced when DCs were incubated with poly(I:C) only (n=11). (B) For intracellular staining of IL-12p35 and IL-12p40 chains, Brefeldin A was added 4 h after poly(I:C) activation and cells were stained after an additional 12 h incubation. Numbers in the upper right quadrants are the percentages of each population for a representative donor (n=3). (C,D) Immature DCs were incubated with MMP-2 for 1 h (5 μg/mL) before poly(I:C) maturation. Intracellular staining of phosphorylated (Y701) STAT1 (P-STAT1) was performed 3 h later. A representative donor (C) and results for all 3 donors (D) are shown. […] (E) Immature DCs were incubated with MMP-2 and poly(I:C)-matured 1 h later. IFNβ levels were measured by ELISA 16 h later. Results are represented as a percentage of IFNβ levels produced when DCs were incubated with poly(I:C) only (n=9). (F,G) 10^6DCs/lane were treated with 0.1 μg MMP-2 or controls. Poly(I:C) was added 1 h later. IFNAR1 protein expression was detected the next day by Western blot analysis using a rabbit monoclonal antibody. A representative donor (F) and results for all 7 donors (G) are shown. (H) The rhIFNAR1 (5 μg; ≈110 kD) was incubated overnight with 0.3 μg MMP-2 before performing Western blot analysis for IFNAR1. The second band (around 90 kD) and the third band (25 kD) very likely correspond to either a degraded form of the protein still recognized by the antibody or a contaminant present in the commercial protein preparation and non-specifically recognized by the antibody. MMP-2 enzymatic activity was controlled (FIG. 13C-D). […]
Dendritic cell preparation and activation. […] Immature DCs were harvested on day 5 and matured using poly(I:C) at 5 μg/mL/10^6 DCs (Amersham) Secretion of IL-12p70, TNFα, IL-1β, IL-6, IL-8 and IL-10 was assessed on both immature and mature DCs using the Human Inflammatory Cytokine Cytometric Bead Array (BD Pharmingen).

Recombinant IL-12p70 = test: Incubation of recombinant IL-12p70 with MMP-2, IL-12p70 content by CBA; format: biochemical, human; settings: rhIL-12 incubated for 24 h in the presence or absence of MMP-2
[2] = system: IL-12p35 and IL-12p40 in DCs; test: Intracellular staining of IL-12p35 and IL-12p40 chains in DCs; format: cell-based, human
Experimental: as §1
Intracellular staining T-bet and GATA-3 expression was measured on resting T cells. […] Cytokine production by T cells was also assessed by intracellular staining T cells were stimulated with 2 μM overlapping peptides. […]

B1: active MMP-2: Purified human MMP-2 (mixture of the proenzyme (50%) and the active form (50%)) purchased from Biomol (protein, listed as Homo sapiens)
chain: MEALMARGALTGPLRALCLLGCLLSHAAAAPSPIIKFPGDVAPKTDKELAVQYLNTFYGCPKESCNLFVLKDTLKKMQKFFGLPQTGDLDQNTIETMRKPRCGNPDVANYNFFPRKPKWDKNQITYRIIGYTPDLDPETVDDAFARAFQVWSDVTPLRFSRIHDGEADIMINFGRWEHGDGYPFDGKDGLLAHAFAPGTGVGGDSHFDDDELWTLGEGQVVRVKYGNADGEYCKFPFLFNGKEYNSCTDTGRSDGFLWCSTTYNFEKDGKYGFCPHEALFTMGGNAEGQPCKFPFRFQGTSYDSCTTEGRTDGYRWCGTTEDYDRDKKYGFCPETAMSTVGGNSEGAPCVFPFTFLGNKYESCTSAGRSDGKMWCATTANYDDDRKWGFCPDQGYSLFLVAAHEFGHAMGLEHSQDPGALMAPIYTYTKNFRLSQDDIKGIQELYGASPDIDLGTGPTPTLGPVTPEICKQDIVFDGIAQIRGEIFFFKDRFIWRTVTPRDKPMGPLLVATFWPELPEKIDAVYEAPQEEKAVFFAGNEYWIYSASTLERGYPKPLTSLGLPPDVQRVDAAFNWSKNKKTYIFAGDKFWRYNEVKKKMDPGFPKLIADAWNAIPDNLDAVVDLQGGGHSYFFKGAYYLKLENQSLKSVKFGSIKSDWLGC
OX40L expression on DCs (OX40L expression on DCs): significantly increased
IL-12p70, mean of differences ([1]; 5 μg/mL MMP-2, n=11 donors): 41.7
IL-12p70 mean inhibition ([1]; 5 μg/mL MMP-2, poly(I:C) stimulation, n=11 donors): 47.8%
IL-12p70 levels after incubation of rhIL-12 with MMP-2 (Recombinant IL-12p70): remained the same
IL-12p40 production [2]: not affected overall
IL-12p35 production, mean inhibition ([2]; pre-exposure of DCs): 65%
DCs expressing the IL-12p35 subunit ([2]; pre-incubated before poly(I:C) activation, poly(I:C) only 4.33%±0.94): 1.5%±0.22
